The results in this text go back to patent US20030162190, “Phosphoromonothioate and phosphorodithioate oligonucleotide aptamer chip for functional proteomics” (published 2003).

In the data set the target is NF-kB p65 (RelA) homodimer (UniProt Q04206 Q04206:1-551). Put plainly: EMSA; competitive EMSA; 5 to 15-fold tighter to p65/p65 than p50 homodimer. As to conditions: chain copies: 2 (stated homodimer). On the procedure: The example used to illustrate that when only one or two dithioate linkages were placed in a molecule, the inhibition/binding of the oligonucleotide to recombinant protein was similar to that of the unsubstituted aptamer illustrates is shown in FIG. 3—as the substitutions of dithiophosphate were increased, binding by the [S₂]-ODN oligonucleotide increased dramatically. For example, in a standard competitive binding assay, ³²P-IgκB promoter element ODN is incubated with recombinant p65 and varying amounts of XBY aptamer competitor. The relative binding ability of the unlabeled ODNs is determined by the concentration needed to effectively compete with the standard labeled ODN. XBY1 through 6 correspond to CK-14 aptamers with 1 through 6 dithiophsphate substitutions, respectively. The present inventors, according to an embodiment of this invention, developed an oligonucleotide containing six dithioate linkages on the two strands, termed XBY-6.
Competitive binding of XBY-6 to p65 homodimers is performed using EMSAs. XBY-6 concentrations are 1.95 (triangle), 3.89 (open circle), and 7.77 (closed circle).
In general terms: A gel shift assay detects complexes by their altered migration in electrophoresis.

Chain of NF-kB p65 (RelA) homodimer (Q04206 whole entry, one chain of several): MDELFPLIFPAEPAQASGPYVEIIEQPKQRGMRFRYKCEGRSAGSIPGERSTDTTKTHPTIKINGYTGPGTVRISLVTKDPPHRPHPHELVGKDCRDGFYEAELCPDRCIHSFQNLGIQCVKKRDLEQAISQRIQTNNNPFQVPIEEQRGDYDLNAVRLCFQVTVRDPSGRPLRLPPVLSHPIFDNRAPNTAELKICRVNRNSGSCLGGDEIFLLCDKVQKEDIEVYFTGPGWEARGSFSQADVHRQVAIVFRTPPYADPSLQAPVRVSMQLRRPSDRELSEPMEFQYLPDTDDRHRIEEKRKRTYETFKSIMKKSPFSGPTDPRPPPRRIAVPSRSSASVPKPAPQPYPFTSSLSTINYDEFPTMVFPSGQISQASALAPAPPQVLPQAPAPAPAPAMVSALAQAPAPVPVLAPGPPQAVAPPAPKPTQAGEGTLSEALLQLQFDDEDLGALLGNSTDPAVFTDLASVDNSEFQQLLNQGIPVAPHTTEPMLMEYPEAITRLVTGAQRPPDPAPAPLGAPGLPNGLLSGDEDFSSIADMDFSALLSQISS

B1: XBY-6 (dsDNA)
DNA 1: CCAGGAGATTCCAC
DNA 2: GTGGAATCTCCTGG
modifications: six phosphorodithioate linkages on the two strands, positions shown only in figures
In general, Kd refers to the free concentration of one partner at which half of the binding sites on the other are occupied at equilibrium, for simple one-to-one binding. A lower Kd goes with higher affinity. In the case of B1, the equilibrium dissociation constant (Kd) came out at 1.44 nM.
